This note sets out measurements from publication PMC549567.

Where two headings read alike, the source gives them in different places.

Common to all, as to assay: EMSA
On the technique in general: A gel shift assay detects complexes by their altered migration in electrophoresis.

Series [1] has as its target T1, MutS (Escherichia coli, UniProt P23909 1-853).
T1 sequence: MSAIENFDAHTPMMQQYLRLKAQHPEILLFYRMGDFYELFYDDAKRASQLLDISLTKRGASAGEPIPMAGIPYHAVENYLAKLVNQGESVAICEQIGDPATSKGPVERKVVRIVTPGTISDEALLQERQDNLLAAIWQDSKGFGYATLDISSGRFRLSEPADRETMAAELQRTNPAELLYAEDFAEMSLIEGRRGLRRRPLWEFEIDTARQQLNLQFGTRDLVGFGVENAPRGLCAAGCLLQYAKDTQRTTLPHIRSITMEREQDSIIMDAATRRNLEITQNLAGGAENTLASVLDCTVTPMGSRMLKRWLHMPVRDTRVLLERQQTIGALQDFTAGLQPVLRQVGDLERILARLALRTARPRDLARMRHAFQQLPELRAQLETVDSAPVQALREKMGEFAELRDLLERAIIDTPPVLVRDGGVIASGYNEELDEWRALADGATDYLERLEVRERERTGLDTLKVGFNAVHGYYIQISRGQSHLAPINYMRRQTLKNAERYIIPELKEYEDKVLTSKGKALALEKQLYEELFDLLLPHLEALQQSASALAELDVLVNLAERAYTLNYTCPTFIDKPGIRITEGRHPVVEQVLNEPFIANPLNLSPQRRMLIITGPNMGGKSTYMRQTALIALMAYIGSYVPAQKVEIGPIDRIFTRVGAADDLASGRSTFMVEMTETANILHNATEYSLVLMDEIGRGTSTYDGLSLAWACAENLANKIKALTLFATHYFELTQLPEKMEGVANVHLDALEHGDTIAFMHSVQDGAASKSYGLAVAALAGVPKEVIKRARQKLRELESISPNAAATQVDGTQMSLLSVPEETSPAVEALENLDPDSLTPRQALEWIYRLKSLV

The target of series [2] is T2, MutSΔ800 (Escherichia coli, UniProt P23909 1-800, del801-853).
T2 sequence: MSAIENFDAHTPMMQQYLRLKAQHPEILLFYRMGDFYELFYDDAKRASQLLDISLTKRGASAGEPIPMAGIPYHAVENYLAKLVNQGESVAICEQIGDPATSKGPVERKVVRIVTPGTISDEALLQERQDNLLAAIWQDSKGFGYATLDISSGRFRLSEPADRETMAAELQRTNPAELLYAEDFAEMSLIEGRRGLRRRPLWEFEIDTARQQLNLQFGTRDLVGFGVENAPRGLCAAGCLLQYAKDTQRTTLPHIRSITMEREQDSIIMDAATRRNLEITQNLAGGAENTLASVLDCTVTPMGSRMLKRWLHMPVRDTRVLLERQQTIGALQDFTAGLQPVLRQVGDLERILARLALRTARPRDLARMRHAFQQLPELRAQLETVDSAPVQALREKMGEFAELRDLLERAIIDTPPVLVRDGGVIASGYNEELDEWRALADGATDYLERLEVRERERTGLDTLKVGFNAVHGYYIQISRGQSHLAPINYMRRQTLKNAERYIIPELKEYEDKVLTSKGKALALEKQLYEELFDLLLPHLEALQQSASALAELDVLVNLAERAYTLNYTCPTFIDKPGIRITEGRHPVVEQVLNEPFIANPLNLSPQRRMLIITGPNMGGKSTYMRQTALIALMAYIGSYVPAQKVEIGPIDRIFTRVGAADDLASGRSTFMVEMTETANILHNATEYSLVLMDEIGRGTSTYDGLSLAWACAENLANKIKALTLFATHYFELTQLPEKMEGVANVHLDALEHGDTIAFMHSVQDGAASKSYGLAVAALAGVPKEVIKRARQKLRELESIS

Series [3] addresses T1, MutS. This is another data set of the same source.
Series [4] deals with T2, MutSΔ800. The source holds these as a separate data set.

B1: O6-meG-C duplex (dsDNA)
DNA 1: ATACGGAAGTTAAAGTGCGGATCATCTCTAG
DNA 2: CTAGAGATGATCCGCACTTTAACTTCCGTAT
modifications: O6-methylguanine at G17 of strand 1
Turning to B1, the binding result with MutS [1] and with MutSΔ800 [2] was “binds” throughout.

B2: Xlink platinated GG-CC (dsDNA)
DNA 1: CCTCTCCTTGGTCTTCTCCTCTCC
DNA 2: GGAGAGGAGAAGACCAAGGAGAGG
modifications: cisplatin intrastrand 1,2-GG cross-link at G10-G11 of strand 1
In the case of B2, the binding result in the series with MutS [3] is “binds”; in the series with MutSΔ800 [4] it was “no binding”.

B3: Xlink unplatinated homoduplex GG-CC (dsDNA)
DNA 1: CCTCTCCTTGGTCTTCTCCTCTCC
DNA 2: GGAGAGGAGAAGACCAAGGAGAGG
On to B3, for which the binding result in the series with MutS [3] and in the series with MutSΔ800 [4] was “no binding” throughout.
